{
  "source": "paper PMC6430397",
  "about": "“The pharmacological properties of 3-arm or 4-arm DOTA constructs for conjugation to α-melanocyte-stimulating hormone analogues for melanoma imaging” (PLoS ONE, 2019)",
  "key": {"MC1-R": {"molecular_target": "T1, MC1-R (Mus musculus, UniProt Q01727)", "T1 construct": "host or cells: B16-F1 mouse melanoma cells", "T1 sequence (Q01727 whole entry)": "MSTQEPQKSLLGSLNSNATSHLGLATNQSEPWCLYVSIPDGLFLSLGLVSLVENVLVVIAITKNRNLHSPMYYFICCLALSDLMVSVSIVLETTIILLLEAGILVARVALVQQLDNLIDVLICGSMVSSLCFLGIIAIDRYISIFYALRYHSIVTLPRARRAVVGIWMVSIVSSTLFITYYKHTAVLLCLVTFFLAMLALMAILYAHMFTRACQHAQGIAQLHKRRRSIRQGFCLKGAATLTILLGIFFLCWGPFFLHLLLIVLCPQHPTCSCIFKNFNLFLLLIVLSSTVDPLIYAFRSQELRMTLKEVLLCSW", "settings": "endogenous ligand; cited from earlier work", "source_text": "The melanocortin 1 receptor (MC1-R) is one of the most targeted melanoma antigens and belongs to the melanocortin family of G protein-coupled receptors, which consists of five receptor subtypes, MC1-R to MC5-R. MC1-R is expressed in nearly all primary and metastatic melanomas and 95% of uveal melanomas. MC1-R is an attractive receptor for molecular-targeted imaging and radionuclide therapy of melanoma. α-melanocyte-stimulating hormone (α-MSH), a tridecapeptide, is an endogenous ligand for the melanocortin family of receptors, with subnanomolar binding affinity to MC1-R [5]."}, "[1]": {"assay": "Partition coefficient, n-octanol / 0.1 M phosphate buffer", "type": "physicochemical", "settings": "pH 7.4", "experimental": "The partition coefficients of ^111In-labeled 3-arm and 4-arm DOTA-α-MSH were measured using 2.0 mL n-octanol as the organic phase and 2.0 mL 0.l M phosphate buffer as the aqueous phase (pH 7.4 for plasma). N-octanol and the buffer were pre-mixed twice using a mechanical mixer for 1 min at room temperature. Then, 20 µL radioactive sample were added and mixed twice using a mechanical mixer for 1 min at room temperature. The radioactivity of 200 uL of each phase was measured after centrifugation. Calculation of log (n-octanol/0.l M phosphate buffer) was performed."}, "[2]": {"assay": "Biological distribution in B16-F1 melanoma-bearing mice", "type": "in vivo, mouse", "settings": "male, C57BL6, mouse, in vivo, iv, 37 kBq/mouse, total radioactivity, Biological distribution", "experimental": "C57BL6 male mice (5 weeks old) were transplanted with B16-F1 cells (5 × 10^5 cells/100 μL) into the thigh of the mice. […] The mice were housed and continuously monitored each day for 2 weeks in a 12-hour light/12-hour dark cycle with free access to food and water. The tumor size reached 8.7 ± 2.8 mm at 2 weeks after transplant of cells. Two mice with tumor sizes of 13 and 15 mm were excluded from our experiments. Mice with a tumor size <10 mm were fasted with no food overnight with water supplied ad libitum before experiments.\nFor biological distribution studies, B16-F1-bearing mice were administered ^111In-labeled 3-arm or 4-arm DOTA-α-MSH via the tail vein (37 kBq/mouse). At 10, 30, 60, 120, and 180 min after injection, the mice were euthanized under isoflurane (n = 3 per time point), and the following tissues were collected: brain, lung, heart, stomach, liver, small intestine, large intestine, kidney, blood, muscle, and B16-F1 melanoma. Tissues were weighed, and radioactivity was quantified using an automated γ-ray counter to calculate the percent injected dose (%ID) or percent injected dose per gram of tissue (%ID/g).\nFor SPECT imaging, ^111In-labeled 3-arm or 4-arm DOTA-α-MSH was injected into the tail vein of four B16-F1-bearing mice in total (37 MBq/mouse). For SPECT imaging, acquisition was started at 10 min after injection and continued every 10 min for 180 min. The data were reconstructed using the ordered subset expectation maximization method with 16 subsets and six iterations including no scatter and attenuation correction. The voxel size was set to 0.8×0.8×0.8 mm. Post-reconstruction smoothing filtering was applied using a 1.0-mm Gaussian filter. […] In these images, three to five regions of interest were placed over the kidney, muscle, and B16-F1 melanoma in which accumulation could be seen, and the time activity curve of each was obtained as the %ID/g."}},
  "data": [
    {"compound": "α-melanocyte-stimulating hormone [α-MSH]", "values": [
      {"measurement": "binding affinity to MC1-R", "setting": "MC1-R", "value": "subnanomolar"}
    ]},
    {"compound": "CSCC[C@H](NC(=O)[C@H](CO)NC(=O)[C@H](Cc1ccc(O)cc1)NC(=O)[C@H](CO)NC(C)=O)C(=O)N[C@@H](CCC(=O)O)C(=O)N[C@@H](Cc1c[nH]cn1)C(=O)N[C@@H](Cc1ccccc1)C(=O)N[C@@H](CCCNC(=N)N)C(=O)N[C@@H](Cc1c[nH]c2ccccc12)C(=O)NCC(=O)N[C@@H](CCCCNC(=O)CN1CCN(CC(=O)O)CCN(CC(=O)O)CCN(CC(=O)O)CC1)C(=O)N1CCC[C@H]1C(=O)N[C@H](C(=O)O)C(C)C", "note": "[^111In-labeled 3-arm DOTA-α-MSH, metal not drawn]", "values": [
      {"measurement": "logD", "setting": "[1]", "value": "-0.28 ± 0.03"},
      {"measurement": "tissue uptake at 10 min", "setting": "[2]; Blood", "value": 3.11, "unit": "%ID/g"},
      {"measurement": "tissue uptake at 0.5 h", "setting": "[2]; Blood", "value": 1.91, "unit": "%ID/g"},
      {"measurement": "tissue uptake at 1 h", "setting": "[2]; Blood", "value": 0.89, "unit": "%ID/g"},
      {"measurement": "tissue uptake at 2 h", "setting": "[2]; Blood", "value": 0.21, "unit": "%ID/g"},
      {"measurement": "tissue uptake at 3 h", "setting": "[2]; Blood", "value": 0.05, "unit": "%ID/g"},
      {"measurement": "tissue uptake at 10 min", "setting": "[2]; Brain", "value": 0.04, "unit": "%ID/g"},
      {"measurement": "tissue uptake at 0.5 h", "setting": "[2]; Brain", "value": 0.05, "unit": "%ID/g"},
      {"measurement": "tissue uptake at 1 h", "setting": "[2]; Brain", "value": 0.05, "unit": "%ID/g"},
      {"measurement": "tissue uptake at 2 h", "setting": "[2]; Brain", "value": 0.03, "unit": "%ID/g"},
      {"measurement": "tissue uptake at 3 h", "setting": "[2]; Brain", "value": 0.02, "unit": "%ID/g"},
      {"measurement": "tissue uptake at 10 min", "setting": "[2]; Heart", "value": 0.74, "unit": "%ID/g"},
      {"measurement": "tissue uptake at 0.5 h", "setting": "[2]; Heart", "value": 0.66, "unit": "%ID/g"},
      {"measurement": "tissue uptake at 1 h", "setting": "[2]; Heart", "value": 0.46, "unit": "%ID/g"},
      {"measurement": "tissue uptake at 2 h", "setting": "[2]; Heart", "value": 0.14, "unit": "%ID/g"},
      {"measurement": "tissue uptake at 3 h", "setting": "[2]; Heart", "value": 0.06, "unit": "%ID/g"},
      {"measurement": "tissue uptake at 10 min", "setting": "[2]; Kidney", "value": 23.6, "unit": "%ID/g"},
      {"measurement": "tissue uptake at 0.5 h", "setting": "[2]; Kidney", "value": 18.4, "unit": "%ID/g"},
      {"measurement": "tissue uptake at 1 h", "setting": "[2]; Kidney", "value": 11.9, "unit": "%ID/g"},
      {"measurement": "tissue uptake at 2 h", "setting": "[2]; Kidney", "value": 8.42, "unit": "%ID/g"},
      {"measurement": "tissue uptake at 3 h", "setting": "[2]; Kidney", "value": 7.07, "unit": "%ID/g"},
      {"measurement": "tissue uptake dose at 10 min", "setting": "[2]; Large intestine", "value": 0.03, "unit": "%ID"},
      {"measurement": "tissue uptake dose at 0.5 h", "setting": "[2]; Large intestine", "value": 0.08, "unit": "%ID"},
      {"measurement": "tissue uptake dose at 1 h", "setting": "[2]; Large intestine", "value": 0.09, "unit": "%ID"},
      {"measurement": "tissue uptake dose at 2 h", "setting": "[2]; Large intestine", "value": 0.05, "unit": "%ID"},
      {"measurement": "tissue uptake dose at 3 h", "setting": "[2]; Large intestine", "value": 0.04, "unit": "%ID"},
      {"measurement": "tissue uptake at 10 min", "setting": "[2]; Liver", "value": 2.3, "unit": "%ID/g"},
      {"measurement": "tissue uptake at 0.5 h", "setting": "[2]; Liver", "value": 1.15, "unit": "%ID/g"},
      {"measurement": "tissue uptake at 1 h", "setting": "[2]; Liver", "value": 1.12, "unit": "%ID/g"},
      {"measurement": "tissue uptake at 2 h", "setting": "[2]; Liver", "value": 1.23, "unit": "%ID/g"},
      {"measurement": "tissue uptake at 3 h", "setting": "[2]; Liver", "value": 0.72, "unit": "%ID/g"},
      {"measurement": "tissue uptake at 10 min", "setting": "[2]; Lung", "value": 0.51, "unit": "%ID/g"},
      {"measurement": "tissue uptake at 0.5 h", "setting": "[2]; Lung", "value": 0.66, "unit": "%ID/g"},
      {"measurement": "tissue uptake at 1 h", "setting": "[2]; Lung", "value": 0.31, "unit": "%ID/g"},
      {"measurement": "tissue uptake at 2 h", "setting": "[2]; Lung", "value": 0.27, "unit": "%ID/g"},
      {"measurement": "tissue uptake at 3 h", "setting": "[2]; Lung", "value": 0.1, "unit": "%ID/g"},
      {"measurement": "tissue uptake at 10 min", "setting": "[2]; Melanoma", "value": 1.71, "unit": "%ID/g"},
      {"measurement": "tissue uptake at 0.5 h", "setting": "[2]; Melanoma", "value": 1.81, "unit": "%ID/g"},
      {"measurement": "tissue uptake at 1 h", "setting": "[2]; Melanoma", "value": 2.49, "unit": "%ID/g"},
      {"measurement": "tissue uptake at 2 h", "setting": "[2]; Melanoma", "value": 3.36, "unit": "%ID/g"},
      {"measurement": "tissue uptake at 3 h", "setting": "[2]; Melanoma", "value": 3.51, "unit": "%ID/g"},
      {"measurement": "tissue uptake at 10 min", "setting": "[2]; Muscle", "value": 0.21, "unit": "%ID/g"},
      {"measurement": "tissue uptake at 0.5 h", "setting": "[2]; Muscle", "value": 0.2, "unit": "%ID/g"},
      {"measurement": "tissue uptake at 1 h", "setting": "[2]; Muscle", "value": 0.15, "unit": "%ID/g"},
      {"measurement": "tissue uptake at 2 h", "setting": "[2]; Muscle", "value": 0.09, "unit": "%ID/g"},
      {"measurement": "tissue uptake at 3 h", "setting": "[2]; Muscle", "value": 0.05, "unit": "%ID/g"},
      {"measurement": "tissue uptake dose at 10 min", "setting": "[2]; Small intestine", "value": 0.04, "unit": "%ID"},
      {"measurement": "tissue uptake dose at 0.5 h", "setting": "[2]; Small intestine", "value": 0.08, "unit": "%ID"},
      {"measurement": "tissue uptake dose at 1 h", "setting": "[2]; Small intestine", "value": 0.09, "unit": "%ID"},
      {"measurement": "tissue uptake dose at 2 h", "setting": "[2]; Small intestine", "value": 0.12, "unit": "%ID"},
      {"measurement": "tissue uptake dose at 3 h", "setting": "[2]; Small intestine", "value": 0.1, "unit": "%ID"},
      {"measurement": "tissue uptake dose at 10 min", "setting": "[2]; Stomach", "value": 0.06, "unit": "%ID"},
      {"measurement": "tissue uptake dose at 0.5 h", "setting": "[2]; Stomach", "value": 0.1, "unit": "%ID"},
      {"measurement": "tissue uptake dose at 1 h", "setting": "[2]; Stomach", "value": 0.12, "unit": "%ID"},
      {"measurement": "tissue uptake dose at 2 h", "setting": "[2]; Stomach", "value": 0.11, "unit": "%ID"},
      {"measurement": "tissue uptake dose at 3 h", "setting": "[2]; Stomach", "value": 0.12, "unit": "%ID"}
    ]}
  ]
}
